Publication PMC2150586 (The Journal of Cell Biology, 1999)

Key:
[1] = biological target: T1, GSTCdc24 (NH2-terminal 472 amino acids of Cdc24p fused to GST) (S. cerevisiae, UniProt P11433 1-472); experiment: pull-down
T1 sequence: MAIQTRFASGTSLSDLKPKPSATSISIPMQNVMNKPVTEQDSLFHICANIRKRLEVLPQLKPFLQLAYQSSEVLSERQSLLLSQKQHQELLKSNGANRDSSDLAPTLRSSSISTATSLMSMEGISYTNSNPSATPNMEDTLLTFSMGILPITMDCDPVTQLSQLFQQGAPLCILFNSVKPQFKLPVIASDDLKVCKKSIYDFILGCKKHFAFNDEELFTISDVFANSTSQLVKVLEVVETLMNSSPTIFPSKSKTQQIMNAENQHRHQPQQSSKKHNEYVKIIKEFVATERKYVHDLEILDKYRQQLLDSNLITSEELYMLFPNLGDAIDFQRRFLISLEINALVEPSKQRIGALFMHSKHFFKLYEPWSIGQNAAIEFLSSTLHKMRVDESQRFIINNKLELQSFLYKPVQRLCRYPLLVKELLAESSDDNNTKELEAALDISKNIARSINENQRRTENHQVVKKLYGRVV

[2] = biological target: T2, GSTCdc24–MBPFar1 complex, isolated by sequential purification on amylose and glutathione resin (S. cerevisiae, UniProt P11433;P21268); experiment: pull-down
T2 sequence 1: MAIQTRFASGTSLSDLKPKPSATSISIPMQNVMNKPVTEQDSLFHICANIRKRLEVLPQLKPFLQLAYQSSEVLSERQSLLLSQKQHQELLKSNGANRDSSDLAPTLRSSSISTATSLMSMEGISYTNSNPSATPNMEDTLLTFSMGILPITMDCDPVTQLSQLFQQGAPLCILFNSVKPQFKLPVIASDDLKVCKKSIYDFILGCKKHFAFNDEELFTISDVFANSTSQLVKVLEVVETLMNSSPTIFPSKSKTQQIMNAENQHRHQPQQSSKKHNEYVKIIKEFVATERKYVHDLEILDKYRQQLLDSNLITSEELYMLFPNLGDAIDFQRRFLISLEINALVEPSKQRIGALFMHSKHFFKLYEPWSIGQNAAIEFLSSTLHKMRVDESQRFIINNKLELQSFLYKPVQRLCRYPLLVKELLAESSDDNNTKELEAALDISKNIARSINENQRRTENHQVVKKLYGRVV
T2 sequence 2: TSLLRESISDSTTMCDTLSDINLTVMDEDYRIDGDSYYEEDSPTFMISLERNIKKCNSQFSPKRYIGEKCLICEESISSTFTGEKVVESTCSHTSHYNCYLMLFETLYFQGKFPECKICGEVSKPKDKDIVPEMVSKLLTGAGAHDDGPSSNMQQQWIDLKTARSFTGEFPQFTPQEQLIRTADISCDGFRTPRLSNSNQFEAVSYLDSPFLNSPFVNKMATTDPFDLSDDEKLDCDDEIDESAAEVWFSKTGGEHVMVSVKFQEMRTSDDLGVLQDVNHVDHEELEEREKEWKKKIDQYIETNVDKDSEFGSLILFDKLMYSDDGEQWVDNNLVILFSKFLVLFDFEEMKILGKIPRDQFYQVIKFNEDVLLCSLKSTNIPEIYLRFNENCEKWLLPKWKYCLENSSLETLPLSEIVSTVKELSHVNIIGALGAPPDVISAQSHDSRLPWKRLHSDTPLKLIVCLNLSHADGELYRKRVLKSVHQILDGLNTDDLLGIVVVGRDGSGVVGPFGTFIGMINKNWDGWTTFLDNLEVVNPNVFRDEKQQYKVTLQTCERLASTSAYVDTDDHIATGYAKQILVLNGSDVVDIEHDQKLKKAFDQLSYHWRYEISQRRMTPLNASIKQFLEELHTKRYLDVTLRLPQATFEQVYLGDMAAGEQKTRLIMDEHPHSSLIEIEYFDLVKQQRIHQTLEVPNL

B1: HASte4p purified from yeast (from HASte4-(TEV)-protein A, released with TEV protease) (natural protein)
chain: MAAHQMDSITYSNNVTQQYIQPQSLQDISAVEDEIQNKIEAARQESKQLHAQINKAKHKIQDASLFQMANKVTSLTKNKINLKPNIVLKGHNNKISDFRWSRDSKRILSASQDGFMLIWDSASGLKQNAIPLDSQWVLSCAISPSSTLVASAGLNNNCTIYRVSKENRVAQNVASIFKGHTCYISDIEFTDNAHILTASGDMTCALWDIPKAKRVREYSDHLGDVLALAIPEEPNSENSSNTFASCGSDGYTYIWDSRSPSAVQSFYVNDSDINALRFFKDGMSIVAGSDNGAINMYDLRSDCSIATFSLFRGYEERTPTPTYMAANMEYNTAQSPQTLKSTSSSYLDNQGVVSLDFSASGRLMYSCYTDIGCVVWDVLKGEIVGKLEGHGGRVTGVRSSPDGLAVCTGSWDSTMKIWSPGYQ
In the case of B1, the “fold increase of HASte4p bound when MBPFar1 is added” value [1] is reported as about 2 fold and the “fold HASte4p bound against a similar amount of GSTCdc24 alone” value [2] is reported as 2 fold.
